# T1: G9a and GLP (Homo sapiens, UniProt Q96KQ7+Q9H9B1)
# T1 sequence (Q96KQ7 2-1210 limits assumed): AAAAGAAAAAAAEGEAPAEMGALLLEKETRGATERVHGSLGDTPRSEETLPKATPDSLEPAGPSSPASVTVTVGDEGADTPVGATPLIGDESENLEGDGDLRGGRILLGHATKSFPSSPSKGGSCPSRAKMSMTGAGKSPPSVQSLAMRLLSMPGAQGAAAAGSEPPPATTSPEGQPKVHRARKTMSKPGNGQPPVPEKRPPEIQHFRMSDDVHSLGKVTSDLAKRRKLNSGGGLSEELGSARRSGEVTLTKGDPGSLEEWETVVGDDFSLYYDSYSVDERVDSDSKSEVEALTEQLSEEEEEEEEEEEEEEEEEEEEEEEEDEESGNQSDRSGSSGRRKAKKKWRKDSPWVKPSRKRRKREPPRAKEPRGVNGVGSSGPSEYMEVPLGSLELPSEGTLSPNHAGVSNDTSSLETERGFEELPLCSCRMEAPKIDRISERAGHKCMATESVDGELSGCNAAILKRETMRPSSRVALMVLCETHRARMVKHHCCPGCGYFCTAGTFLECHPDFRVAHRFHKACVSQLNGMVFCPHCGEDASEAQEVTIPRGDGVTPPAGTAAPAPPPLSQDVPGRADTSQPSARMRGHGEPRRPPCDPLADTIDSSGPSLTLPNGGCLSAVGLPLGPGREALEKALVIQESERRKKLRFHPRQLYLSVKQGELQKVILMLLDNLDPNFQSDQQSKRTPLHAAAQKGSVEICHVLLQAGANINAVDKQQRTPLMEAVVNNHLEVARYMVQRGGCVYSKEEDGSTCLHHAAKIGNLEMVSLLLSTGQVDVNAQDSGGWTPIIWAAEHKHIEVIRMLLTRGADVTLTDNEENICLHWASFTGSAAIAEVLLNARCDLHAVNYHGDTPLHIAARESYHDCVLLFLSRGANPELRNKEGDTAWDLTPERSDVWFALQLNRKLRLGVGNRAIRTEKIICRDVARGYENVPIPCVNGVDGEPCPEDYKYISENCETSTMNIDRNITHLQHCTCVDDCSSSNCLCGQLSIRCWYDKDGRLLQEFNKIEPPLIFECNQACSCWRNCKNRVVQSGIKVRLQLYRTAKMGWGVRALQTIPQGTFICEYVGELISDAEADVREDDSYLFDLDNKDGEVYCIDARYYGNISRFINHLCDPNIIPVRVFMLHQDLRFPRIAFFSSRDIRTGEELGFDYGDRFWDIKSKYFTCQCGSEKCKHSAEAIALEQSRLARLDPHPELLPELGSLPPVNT
# T1 sequence (Q9H9B1 2-1298 limits assumed): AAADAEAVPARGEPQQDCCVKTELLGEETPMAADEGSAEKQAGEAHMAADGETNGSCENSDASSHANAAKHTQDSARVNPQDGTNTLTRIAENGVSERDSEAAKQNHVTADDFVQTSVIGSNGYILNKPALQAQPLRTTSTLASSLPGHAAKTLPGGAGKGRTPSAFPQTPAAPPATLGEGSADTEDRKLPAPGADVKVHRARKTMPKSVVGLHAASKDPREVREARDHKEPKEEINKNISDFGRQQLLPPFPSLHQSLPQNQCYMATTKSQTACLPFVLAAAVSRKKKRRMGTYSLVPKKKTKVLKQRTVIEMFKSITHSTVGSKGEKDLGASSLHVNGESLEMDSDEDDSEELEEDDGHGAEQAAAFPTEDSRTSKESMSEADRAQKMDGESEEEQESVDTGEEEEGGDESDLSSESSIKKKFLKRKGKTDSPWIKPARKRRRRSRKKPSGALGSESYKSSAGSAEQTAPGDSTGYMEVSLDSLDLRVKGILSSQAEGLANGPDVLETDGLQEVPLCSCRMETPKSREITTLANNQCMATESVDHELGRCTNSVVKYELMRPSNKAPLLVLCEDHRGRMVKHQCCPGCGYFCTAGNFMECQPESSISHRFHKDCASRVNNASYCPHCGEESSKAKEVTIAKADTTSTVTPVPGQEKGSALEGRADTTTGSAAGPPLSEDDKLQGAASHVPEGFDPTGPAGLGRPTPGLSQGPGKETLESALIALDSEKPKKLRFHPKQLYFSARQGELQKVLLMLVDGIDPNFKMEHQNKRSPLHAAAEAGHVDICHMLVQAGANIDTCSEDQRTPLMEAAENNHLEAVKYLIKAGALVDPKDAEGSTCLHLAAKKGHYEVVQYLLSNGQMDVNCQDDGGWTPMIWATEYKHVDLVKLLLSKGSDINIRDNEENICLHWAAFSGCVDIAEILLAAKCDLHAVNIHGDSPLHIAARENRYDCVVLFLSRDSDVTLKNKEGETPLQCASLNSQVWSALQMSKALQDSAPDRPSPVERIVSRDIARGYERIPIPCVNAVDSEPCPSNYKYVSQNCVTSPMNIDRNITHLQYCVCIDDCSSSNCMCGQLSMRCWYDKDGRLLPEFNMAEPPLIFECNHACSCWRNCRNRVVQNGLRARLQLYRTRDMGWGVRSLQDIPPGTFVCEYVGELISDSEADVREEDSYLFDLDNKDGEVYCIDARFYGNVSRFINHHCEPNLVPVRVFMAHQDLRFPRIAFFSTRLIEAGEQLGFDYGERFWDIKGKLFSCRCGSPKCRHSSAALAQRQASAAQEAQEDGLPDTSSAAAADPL
# Experiments:
# 3×MBT domain of L3MBTL1 = assay: Triple SILAC pull-down, 3xMBT/3xMBTD355N ratio (cytoplasmic, nuclear and chromatin fractions of 293T cells); format: binding, human; conditions: SILAC ratio 3xMBT vs 3xMBTD355N pull-down, 293T cells, all values in log base 2; for 3xMBT/D355N UNC Heavy: experiment with UNC0638 in heavy SILAC media; for 3xMBT/D355N UNC Light: experiment with UNC0638 in light SILAC media;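 for all read-outs here: proteins quantified with MaxQuant, requiring at least two unique peptides and quantification in both label directions, normalized to the mean of proteins from a digested loading control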
# G9a and GLP = molecular target: T1, G9a and GLP; assay: Triple SILAC pull-down after UNC0638 treatment of 293T cells, DMSO/UNC0638 ratio of protein captured by 3×MBT; format: cell-based; parameters: endogenous in cells; host or cells: HEK 293T; conditions: all values in log base 2; for Relative to UNC0638 UNC Light / Relative to UNC0638 UNC Heavy: SILAC ratio DMSO relative to UNC0638, pull-down with 3xMBT; for Relative to UNC0638 UNC Light: UNC0638 in light SILAC media; for Relative to UNC0638 Average: average of UNC Light and UNC Heavy experiments; for Relative to UNC0638 UNC Heavy: UNC0638 in heavy SILAC media;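 for all read-outs here: mass spectrometry (Q-Exactive) SILAC quantitation, DMSO/UNC0638 ratio computed after subtracting 3×MBTD355N mutant pull-down background, only proteins with at least twofold 3×MBT over mutant signal considered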
Relative to UNC0638 UNC Light (G9a and GLP),Relative to UNC0638 Average (G9a and GLP),Relative to UNC0638 UNC Heavy (G9a and GLP),Molecule,3xMBT/D355N UNC Heavy (3×MBT domain of L3MBTL1),3xMBT/D355N UNC Light (3×MBT domain of L3MBTL1)
−0.49 log base 2,−0.49 log base 2,,"CTNND1 (protein, UniProt O60716 1-968, looked up) Catenin delta-1: MDDSEVESTASILASVKEQEAQFEKLTRALEEERRHVSAQLERVRVSPQDANPLMANGTLTRRHQNGRFVGDADLERQKFSDLKLNGPQDHSHLLYSTIPRMQEPGQIVETYTEEDPEGAMSVVSVETSDDGTTRRTETTVKKVVKTVTTRTVQPVAMGPDGLPVDASSVSNNYIQTLGRDFRKNGNGGPGPYVGQAGTATLPRNFHYPPDGYSRHYEDGYPGGSDNYGSLSRVTRIEERYRPSMEGYRAPSRQDVYGPQPQVRVGGSSVDLHRFHPEPYGLEDDQRSMGYDDLDYGMMSDYGTARRTGTPSDPRRRLRSYEDMIGEEVPSDQYYWAPLAQHERGSLASLDSLRKGGPPPPNWRQPELPEVIAMLGFRLDAVKSNAAAYLQHLCYRNDKVKTDVRKLKGIPVLVGLLDHPKKEVHLGACGALKNISFGRDQDNKIAIKNCDGVPALVRLLRKARDMDLTEVITGTLWNLSSHDSIKMEIVDHALHALTDEVIIPHSGWEREPNEDCKPRHIEWESVLTNTAGCLRNVSSERSEARRKLRECDGLVDALIFIVQAEIGQKDSDSKLVENCVCLLRNLSYQVHREIPQAERYQEAAPNVANNTGPHAASCFGAKKGKDEWFSRGKKPIEDPANDTVDFPKRTSPARGYELLFQPEVVRIYISLLKESKTPAILEASAGAIQNLCAGRWTYGRYIRSALRQEKALSAIADLLTNEHERVVKAASGALRNLAVDARNKELIGKHAIPNLVKNLPGGQQNSSWNFSEDTVISILNTINEVIAENLEAAKKLRETQGIEKLVLINKSGNRSEKEVRAAALVLQTIWGYKELRKPLEKEGWKKSDFQVNLNNASRSQSSHSYDDSTLPLIDRNQKSDKKPDREEIQMSNMGSNTKSLDNNYSTPNERGDHNRTLDRSGDLGDMEPLKGTTPLMQDEGQESLEEELDVLVLDDEGGQVSYPSMQKI",0.67 log base 2,2.07 log base 2
−0.38 log base 2,−0.12 log base 2,0.14 log base 2,"BAZ1B (protein, UniProt Q9UIG0 1-1483, looked up) Tyrosine-protein kinase BAZ1B: MAPLLGRKPFPLVKPLPGEEPLFTIPHTQEAFRTREEYEARLERYSERIWTCKSTGSSQLTHKEAWEEEQEVAELLKEEFPAWYEKLVLEMVHHNTASLEKLVDTAWLEIMTKYAVGEECDFEVGKEKMLKVKIVKIHPLEKVDEEATEKKSDGACDSPSSDKENSSQIAQDHQKKETVVKEDEGRRESINDRARRSPRKLPTSLKKGERKWAPPKFLPHKYDVKLQNEDKIISNVPADSLIRTERPPNKEIVRYFIRHNALRAGTGENAPWVVEDELVKKYSLPSKFSDFLLDPYKYMTLNPSTKRKNTGSPDRKPSKKSKTDNSSLSSPLNPKLWCHVHLKKSLSGSPLKVKNSKNSKSPEEHLEEMMKMMSPNKLHTNFHIPKKGPPAKKPGKHSDKPLKAKGRSKGILNGQKSTGNSKSPKKGLKTPKTKMKQMTLLDMAKGTQKMTRAPRNSGGTPRTSSKPHKHLPPAALHLIAYYKENKDREDKRSALSCVISKTARLLSSEDRARLPEELRSLVQKRYELLEHKKRWASMSEEQRKEYLKKKREELKKKLKEKAKERREKEMLERLEKQKRYEDQELTGKNLPAFRLVDTPEGLPNTLFGDVAMVVEFLSCYSGLLLPDAQYPITAVSLMEALSADKGGFLYLNRVLVILLQTLLQDEIAEDYGELGMKLSEIPLTLHSVSELVRLCLRRSDVQEESEGSDTDDNKDSAAFEDNEVQDEFLEKLETSEFFELTSEEKLQILTALCHRILMTYSVQDHMETRQQMSAELWKERLAVLKEENDKKRAEKQKRKEMEAKNKENGKVENGLGKTDRKKEIVKFEPQVDTEAEDMISAVKSRRLLAIQAKKEREIQEREMKVKLERQAEEERIRKHKAAAEKAFQEGIAKAKLVMRRTPIGTDRNHNRYWLFSDEVPGLFIEKGWVHDSIDYRFNHHCKDHTVSGDEDYCPRSKKANLGKNASMNTQHGTATEVAVETTTPKQGQNLWFLCDSQKELDELLNCLHPQGIRESQLKERLEKRYQDIIHSIHLARKPNLGLKSCDGNQELLNFLRSDLIEVATRLQKGGLGYVEETSEFEARVISLEKLKDFGECVIALQASVIKKFLQGFMAPKQKRRKLQSEDSAKTEEVDEEKKMVEEAKVASALEKWKTAIREAQTFSRMHVLLGMLDACIKWDMSAENARCKVCRKKGEDDKLILCDECNKAFHLFCLRPALYEVPDGEWQCPACQPATARRNSRGRNYTEESASEDSEDDESDEEEEEEEEEEEEEDYEVAGLRLRPRKTIRGKHSVIPPAARSGRRPGKKPHSTRRSQPKAPPVDDAEVDELVLQTKRSSRRQSLELQKCEEILHKIVKYRFSWPFREPVTRDEAEDYYDVITHPMDFQTVQNKCSCGSYRSVQEFLTDMKQVFTNAEVYNCRGSHVLSCMVKTEQCLVALLHKHLPGHPYVRRKRKKFPDRLAEDEGDSEPEAVGQSRGRRQKK",1.37 log base 2,0.19 log base 2
−0.94 log base 2,−0.12 log base 2,0.71 log base 2,"SHKBP1 (protein, UniProt Q8TBC3 2-707, looked up) SH3KBP1-binding protein 1: AAAATAAEGVPSRGPPGEVIHLNVGGKRFSTSRQTLTWIPDSFFSSLLSGRISTLKDETGAIFIDRDPTVFAPILNFLRTKELDPRGVHGSSLLHEAQFYGLTPLVRRLQLREELDRSSCGNVLFNGYLPPPVFPVKRRNRHSLVGPQQLGGRPAPVRRSNTMPPNLGNAGLLGRMLDEKTPPSPSGQPEEPGMVRLVCGHHNWIAVAYTQFLVCYRLKEASGWQLVFSSPRLDWPIERLALTARVHGGALGEHDKMVAAATGSEILLWALQAEGGGSEIGVFHLGVPVEALFFVGNQLIATSHTGRIGVWNAVTKHWQVQEVQPITSYDAAGSFLLLGCNNGSIYYVDVQKFPLRMKDNDLLVSELYRDPAEDGVTALSVYLTPKTSDSGNWIEIAYGTSSGGVRVIVQHPETVGSGPQLFQTFTVHRSPVTKIMLSEKHLISVCADNNHVRTWSVTRFRGMISTQPGSTPLASFKILALESADGHGGCSAGNDIGPYGERDDQQVFIQKVVPSASQLFVRLSSTGQRVCSVRSVDGSPTTAFTVLECEGSRRLGSRPRRYLLTGQANGSLAMWDLTTAMDGLGQAPAGGLTEQELMEQLEHCELAPPAPSAPSWGCLPSPSPRISLTSLHSASSNTSLSGHRGSPSPPQAEARRRGGGSFVERCQELVRSGPDLRRPPTPAPWPSSGLGTPLTPPKMKLNETSF",2.90 log base 2,2.73 log base 2

# Reference: patent US20140274782A1, “AFFINITY REAGENTS AND METHODS FOR DETECTION, PURIFICATION, AND PROTEOMIC ANALYSIS OF METHYLATED PROTEINS” (The Board of Trustees of the Leland Stanford Junior …, priority 2013, published 2014)
